The supplement of paper PMC10065799, “High-throughput profiling of sequence recognition by tyrosine kinases and SH2 domains using bacterial peptide display” (eLife, 2023)

Legend:
[1] = target: Fyn (UniProt P06241); assay: phosphorylation enrichment, bacterial display (enrichment ratio); higher = better substrate or ligand; peptides without Tyr show the background
[2] = target: Hck (UniProt P08631); assay: as above
[3] = test system: Fer (mouse); assay: as above
[4] = test system: AncSZ; assay: as above
[5] = test system: c-Abl (mouse); assay: as above
[6] = target: FGFR1 (UniProt P11362); assay: as above
FGFR1, sequence (P11362 whole entry, looked up): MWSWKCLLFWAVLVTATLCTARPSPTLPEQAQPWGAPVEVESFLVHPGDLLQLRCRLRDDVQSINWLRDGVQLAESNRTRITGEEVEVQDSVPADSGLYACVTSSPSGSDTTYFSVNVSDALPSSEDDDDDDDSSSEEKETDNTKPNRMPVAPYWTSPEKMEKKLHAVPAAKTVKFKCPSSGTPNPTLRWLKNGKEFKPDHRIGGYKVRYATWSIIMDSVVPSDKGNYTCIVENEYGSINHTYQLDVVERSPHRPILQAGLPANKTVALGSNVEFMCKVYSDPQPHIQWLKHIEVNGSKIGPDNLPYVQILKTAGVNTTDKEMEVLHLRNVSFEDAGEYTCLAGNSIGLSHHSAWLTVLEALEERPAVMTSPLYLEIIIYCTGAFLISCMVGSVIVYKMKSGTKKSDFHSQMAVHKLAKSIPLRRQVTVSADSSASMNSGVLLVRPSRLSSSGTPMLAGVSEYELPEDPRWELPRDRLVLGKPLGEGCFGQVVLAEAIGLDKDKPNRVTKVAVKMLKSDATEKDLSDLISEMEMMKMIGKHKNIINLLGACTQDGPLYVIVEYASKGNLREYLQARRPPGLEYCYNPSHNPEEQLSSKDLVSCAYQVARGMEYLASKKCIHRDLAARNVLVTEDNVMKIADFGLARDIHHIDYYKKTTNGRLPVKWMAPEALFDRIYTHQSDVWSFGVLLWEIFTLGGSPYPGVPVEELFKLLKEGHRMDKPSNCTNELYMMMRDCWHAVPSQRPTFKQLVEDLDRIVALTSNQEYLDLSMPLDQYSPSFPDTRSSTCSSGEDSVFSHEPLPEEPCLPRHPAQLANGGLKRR

[7] = target: FGFR3 (UniProt P22607); assay: as above
[8] = target: EPHB1 (UniProt P54762); assay: as above
EPHB1, sequence (P54762 whole entry, looked up): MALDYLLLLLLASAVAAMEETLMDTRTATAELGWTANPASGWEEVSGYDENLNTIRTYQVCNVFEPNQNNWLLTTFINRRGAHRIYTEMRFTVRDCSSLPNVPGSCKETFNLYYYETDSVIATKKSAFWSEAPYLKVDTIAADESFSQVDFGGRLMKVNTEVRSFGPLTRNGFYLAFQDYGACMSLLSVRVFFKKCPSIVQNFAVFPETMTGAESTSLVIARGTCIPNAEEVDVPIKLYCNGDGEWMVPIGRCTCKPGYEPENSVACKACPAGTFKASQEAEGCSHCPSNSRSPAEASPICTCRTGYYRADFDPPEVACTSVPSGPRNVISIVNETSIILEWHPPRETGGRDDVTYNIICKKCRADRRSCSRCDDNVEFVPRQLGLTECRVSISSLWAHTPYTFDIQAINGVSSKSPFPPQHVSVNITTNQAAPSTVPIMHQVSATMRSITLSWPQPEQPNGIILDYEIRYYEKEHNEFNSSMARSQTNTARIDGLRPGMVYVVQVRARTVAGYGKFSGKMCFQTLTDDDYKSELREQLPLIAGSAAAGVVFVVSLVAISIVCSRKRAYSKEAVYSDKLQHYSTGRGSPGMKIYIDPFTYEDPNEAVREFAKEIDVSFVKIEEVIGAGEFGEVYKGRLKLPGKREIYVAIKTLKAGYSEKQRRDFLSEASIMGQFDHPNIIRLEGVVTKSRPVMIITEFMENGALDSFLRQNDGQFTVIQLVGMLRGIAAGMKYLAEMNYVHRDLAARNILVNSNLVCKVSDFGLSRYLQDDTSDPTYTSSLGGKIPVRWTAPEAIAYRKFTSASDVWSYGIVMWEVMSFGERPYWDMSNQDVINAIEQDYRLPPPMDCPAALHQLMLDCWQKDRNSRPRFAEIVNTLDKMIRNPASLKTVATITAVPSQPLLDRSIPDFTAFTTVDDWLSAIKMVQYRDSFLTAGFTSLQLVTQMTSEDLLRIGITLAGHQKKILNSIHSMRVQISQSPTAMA

[9] = target: Fes (UniProt P07332); assay: as above
Fes, sequence (P07332 whole entry, looked up): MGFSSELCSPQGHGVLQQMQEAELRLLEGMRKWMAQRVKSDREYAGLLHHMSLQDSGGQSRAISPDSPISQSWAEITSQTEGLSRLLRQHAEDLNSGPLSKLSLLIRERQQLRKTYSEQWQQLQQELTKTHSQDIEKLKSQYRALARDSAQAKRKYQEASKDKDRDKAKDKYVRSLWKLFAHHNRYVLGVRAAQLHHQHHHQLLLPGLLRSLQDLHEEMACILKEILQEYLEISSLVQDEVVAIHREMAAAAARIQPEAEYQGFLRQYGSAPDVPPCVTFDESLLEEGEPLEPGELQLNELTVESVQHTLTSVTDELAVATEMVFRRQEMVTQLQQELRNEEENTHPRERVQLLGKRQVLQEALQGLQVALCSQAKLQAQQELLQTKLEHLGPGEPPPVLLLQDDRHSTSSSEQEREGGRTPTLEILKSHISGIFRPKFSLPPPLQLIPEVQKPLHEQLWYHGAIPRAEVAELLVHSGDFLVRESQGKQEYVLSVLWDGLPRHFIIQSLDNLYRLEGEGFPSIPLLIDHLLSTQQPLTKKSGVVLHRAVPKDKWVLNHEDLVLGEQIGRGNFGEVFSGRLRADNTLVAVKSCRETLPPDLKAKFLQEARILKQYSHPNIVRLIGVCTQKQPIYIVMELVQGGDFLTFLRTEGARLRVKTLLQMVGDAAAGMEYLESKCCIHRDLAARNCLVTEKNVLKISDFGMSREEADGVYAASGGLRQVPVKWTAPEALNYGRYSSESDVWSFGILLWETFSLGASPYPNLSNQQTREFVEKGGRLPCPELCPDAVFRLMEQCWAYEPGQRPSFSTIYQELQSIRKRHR

[10] = target: MERTK (UniProt Q12866); assay: as above
MERTK, sequence (Q12866 whole entry, looked up): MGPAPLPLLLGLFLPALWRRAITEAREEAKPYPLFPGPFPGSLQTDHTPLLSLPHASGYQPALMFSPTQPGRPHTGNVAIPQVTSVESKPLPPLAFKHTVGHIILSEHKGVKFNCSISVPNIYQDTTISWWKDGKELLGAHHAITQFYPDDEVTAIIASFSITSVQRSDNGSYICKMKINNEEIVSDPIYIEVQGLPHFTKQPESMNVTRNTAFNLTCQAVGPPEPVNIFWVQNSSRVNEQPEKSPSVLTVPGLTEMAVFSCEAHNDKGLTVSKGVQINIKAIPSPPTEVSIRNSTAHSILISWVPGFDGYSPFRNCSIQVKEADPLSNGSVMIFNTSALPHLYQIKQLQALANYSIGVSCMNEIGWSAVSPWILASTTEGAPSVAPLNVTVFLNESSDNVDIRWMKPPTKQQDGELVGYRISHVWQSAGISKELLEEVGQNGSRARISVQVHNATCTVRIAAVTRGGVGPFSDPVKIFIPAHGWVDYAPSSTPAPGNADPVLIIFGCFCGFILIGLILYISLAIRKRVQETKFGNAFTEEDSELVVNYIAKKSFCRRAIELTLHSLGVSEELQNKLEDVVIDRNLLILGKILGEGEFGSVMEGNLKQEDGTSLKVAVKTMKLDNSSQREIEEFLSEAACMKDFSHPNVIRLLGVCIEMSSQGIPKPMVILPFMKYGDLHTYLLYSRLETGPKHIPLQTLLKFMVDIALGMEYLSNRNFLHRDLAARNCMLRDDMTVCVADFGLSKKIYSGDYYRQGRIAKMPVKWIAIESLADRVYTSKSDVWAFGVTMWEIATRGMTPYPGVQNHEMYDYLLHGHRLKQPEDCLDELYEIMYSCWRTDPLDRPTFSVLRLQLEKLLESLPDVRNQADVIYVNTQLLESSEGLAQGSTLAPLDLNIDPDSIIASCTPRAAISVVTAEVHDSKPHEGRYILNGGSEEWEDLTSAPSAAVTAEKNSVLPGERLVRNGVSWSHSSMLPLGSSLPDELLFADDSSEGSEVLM

[11] = target: EPHB2 (UniProt P29323); assay: as above
[12] = test system: c-Src; assay: as above
[13] = target: Jak2 (UniProt O60674); assay: as above
[14] = target: c-Src SH2; assay: SH2 binding enrichment of the phosphorylated peptide, bacterial display (enrichment ratio); higher = better substrate or ligand; peptides without Tyr show the background
[15] = target: SHP2-C SH2; assay: as above
[16] = target: Grb2 SH2 (UniProt P62993); assay: as above
Grb2 SH2, sequence (P62993 whole entry, looked up, the tested form may be a part): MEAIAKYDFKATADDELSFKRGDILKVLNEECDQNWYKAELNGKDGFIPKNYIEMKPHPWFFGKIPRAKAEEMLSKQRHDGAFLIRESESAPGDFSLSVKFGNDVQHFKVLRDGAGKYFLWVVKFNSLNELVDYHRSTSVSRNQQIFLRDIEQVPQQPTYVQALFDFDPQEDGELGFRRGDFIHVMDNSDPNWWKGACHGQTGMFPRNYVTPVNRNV
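Wherever SH2 binding enrichment of the phosphorylated peptide, bacterial display is given: peptide library displayed on the E. coli surface as eCPX fusions, selected cells deep-sequenced, score is each peptide's frequency after selection divided by its frequency in the input.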
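Wherever phosphorylation enrichment, bacterial display is given: 11-residue human phosphosite peptides and single-mutation variants displayed on the E. coli surface, counted by deep sequencing, each peptide's frequency after selection divided by its frequency in the unselected input library; frequency after pTyr selection over input frequency; kinase dosed for 20-30% of maximal phosphorylation in three min.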

Hck, sequence (P08631 whole entry, looked up): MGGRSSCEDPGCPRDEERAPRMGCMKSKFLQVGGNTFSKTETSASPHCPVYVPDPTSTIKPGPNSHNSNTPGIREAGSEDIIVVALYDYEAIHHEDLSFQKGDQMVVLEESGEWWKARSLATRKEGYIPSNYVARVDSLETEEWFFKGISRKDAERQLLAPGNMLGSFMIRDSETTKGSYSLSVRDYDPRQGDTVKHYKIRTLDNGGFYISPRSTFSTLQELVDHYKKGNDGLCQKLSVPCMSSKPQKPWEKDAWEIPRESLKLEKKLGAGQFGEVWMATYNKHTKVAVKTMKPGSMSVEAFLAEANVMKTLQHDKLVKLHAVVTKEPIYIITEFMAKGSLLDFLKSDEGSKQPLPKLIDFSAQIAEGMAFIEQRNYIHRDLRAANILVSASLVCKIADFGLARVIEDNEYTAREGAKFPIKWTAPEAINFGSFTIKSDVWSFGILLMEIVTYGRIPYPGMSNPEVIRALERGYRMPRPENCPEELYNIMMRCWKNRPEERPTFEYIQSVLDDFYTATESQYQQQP
Fyn, sequence (P06241 whole entry, looked up): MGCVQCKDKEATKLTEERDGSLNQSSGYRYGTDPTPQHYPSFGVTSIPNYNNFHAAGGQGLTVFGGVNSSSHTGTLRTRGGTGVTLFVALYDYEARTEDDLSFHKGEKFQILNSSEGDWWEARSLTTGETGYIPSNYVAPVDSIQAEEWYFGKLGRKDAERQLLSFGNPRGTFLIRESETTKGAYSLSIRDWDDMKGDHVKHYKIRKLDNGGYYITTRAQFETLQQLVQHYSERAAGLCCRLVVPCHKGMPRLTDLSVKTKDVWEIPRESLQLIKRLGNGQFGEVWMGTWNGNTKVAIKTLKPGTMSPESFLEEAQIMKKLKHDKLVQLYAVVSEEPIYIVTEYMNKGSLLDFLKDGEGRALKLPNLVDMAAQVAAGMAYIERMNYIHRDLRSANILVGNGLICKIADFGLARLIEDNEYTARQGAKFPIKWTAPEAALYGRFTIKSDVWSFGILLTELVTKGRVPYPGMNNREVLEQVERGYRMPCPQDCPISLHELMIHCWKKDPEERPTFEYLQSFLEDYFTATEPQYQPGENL

For QITQVYGFYDE [PPP2CA_Y127], the phosphorylation enrichment [1] was 9.45, the phosphorylation enrichment [2] was 3.7 and the phosphorylation enrichment [3] was 1.3. It also gave a phosphorylation enrichment [4] of 1.24, a phosphorylation enrichment [5] of 1.01 and a phosphorylation enrichment [6] of 0.615. The phosphorylation enrichment [7] was 1.27, the phosphorylation enrichment [8] was 0.716 and the phosphorylation enrichment [9] was 1.21. The phosphorylation enrichment [10] was 1.58, the phosphorylation enrichment [11] was 1.12 and the phosphorylation enrichment [12] was 6.85. The phosphorylation enrichment [13] was 1.06, the SH2 binding enrichment [14] was 1.72 and the SH2 binding enrichment [15] was 0.693. It also gave an SH2 binding enrichment [16] of 0.867.
With QKKEEYKMALF [F8_Y1990_R1985Q_YF] the phosphorylation enrichment [1] was 0.421, the phosphorylation enrichment [2] was 0.561 and the phosphorylation enrichment [3] was 0.498. It also gave a phosphorylation enrichment [4] of 0.736, a phosphorylation enrichment [5] of 0.774 and a phosphorylation enrichment [6] of 0.716. The phosphorylation enrichment [7] was 0.509, the phosphorylation enrichment [8] was 0.645 and the phosphorylation enrichment [9] was 0.866. The phosphorylation enrichment [10] was 0.811, the phosphorylation enrichment [11] was 0.48 and the phosphorylation enrichment [12] was 0.37. For the same sequence, the phosphorylation enrichment [13] was 0.552, the SH2 binding enrichment [14] was 0.483 and the SH2 binding enrichment [15] was 0.481. For the same sequence, the SH2 binding enrichment [16] was 0.73.
Sequence QKPLGYYRVNL [GALE_Y104_D103G] has a phosphorylation enrichment [1] of 0.528, a phosphorylation enrichment [2] of 0.497 and a phosphorylation enrichment [3] of 0.51. It also gave a phosphorylation enrichment [4] of 0.667, a phosphorylation enrichment [5] of 0.455 and a phosphorylation enrichment [6] of 0.636. It also gave a phosphorylation enrichment [7] of 0.826, a phosphorylation enrichment [8] of 0.445 and a phosphorylation enrichment [9] of 0.641. For the same sequence, the phosphorylation enrichment [10] was 0.516, the phosphorylation enrichment [11] was 0.482 and the phosphorylation enrichment [12] was 0.386. It also gave a phosphorylation enrichment [13] of 2.37, an SH2 binding enrichment [14] of 0.961 and an SH2 binding enrichment [15] of 1.3. It also gave an SH2 binding enrichment [16] of 1.27.
QLCVNYPGGFT [PROS1_Y259_YF] gave a phosphorylation enrichment [1] of 0.675, a phosphorylation enrichment [2] of 0.85 and a phosphorylation enrichment [3] of 0.692. For the same sequence, the phosphorylation enrichment [4] was 1.45, the phosphorylation enrichment [5] was 0.835 and the phosphorylation enrichment [6] was 0.698. The phosphorylation enrichment [7] was 0.904, the phosphorylation enrichment [8] was 0.792 and the phosphorylation enrichment [9] was 1.61. The phosphorylation enrichment [10] was 0.552, the phosphorylation enrichment [11] was 0.697 and the phosphorylation enrichment [12] was 0.37. For the same sequence, the phosphorylation enrichment [13] was 0.907, the SH2 binding enrichment [14] was 0.538 and the SH2 binding enrichment [15] was 0.613. The SH2 binding enrichment [16] was 0.73.
QLHEHCKIHKE [NSMAF_Y626_Y626C] showed a phosphorylation enrichment [1] of 0.633, a phosphorylation enrichment [2] of 0.649 and a phosphorylation enrichment [3] of 0.522. For the same sequence, the phosphorylation enrichment [4] was 0.682, the phosphorylation enrichment [5] was 0.728 and the phosphorylation enrichment [6] was 0.745. The phosphorylation enrichment [7] was 0.651, the phosphorylation enrichment [8] was 0.343 and the phosphorylation enrichment [9] was 0.612. It also gave a phosphorylation enrichment [10] of 0.629, a phosphorylation enrichment [11] of 0.422 and a phosphorylation enrichment [12] of 0.724. For the same sequence, the phosphorylation enrichment [13] was 0.666, the SH2 binding enrichment [14] was 0.945 and the SH2 binding enrichment [15] was 1.15. For the same sequence, the SH2 binding enrichment [16] was 1.37.
QLPATCMNLGP [MST1R_Y1360_Y1360C] showed a phosphorylation enrichment [1] of 0.817, a phosphorylation enrichment [2] of 0.554 and a phosphorylation enrichment [3] of 0.621. For the same sequence, the phosphorylation enrichment [4] was 1.29, the phosphorylation enrichment [5] was 1.06 and the phosphorylation enrichment [6] was 0.615. The phosphorylation enrichment [7] was 0.913, the phosphorylation enrichment [8] was 0.668 and the phosphorylation enrichment [9] was 1.2. It also gave a phosphorylation enrichment [10] of 0.533, a phosphorylation enrichment [11] of 0.683 and a phosphorylation enrichment [12] of 0.632. The phosphorylation enrichment [13] was 1.14, the SH2 binding enrichment [14] was 0.539 and the SH2 binding enrichment [15] was 0.439. It also gave an SH2 binding enrichment [16] of 0.822.
For QLPATYMNLGP [MST1R_Y1360], the phosphorylation enrichment [1] was 0.706, the phosphorylation enrichment [2] was 0.741 and the phosphorylation enrichment [3] was 0.406. The phosphorylation enrichment [4] was 0.547, the phosphorylation enrichment [5] was 0.87 and the phosphorylation enrichment [6] was 0.766. It also gave a phosphorylation enrichment [7] of 0.616, a phosphorylation enrichment [8] of 2.99 and a phosphorylation enrichment [9] of 0.747. For the same sequence, the phosphorylation enrichment [10] was 6.84, the phosphorylation enrichment [11] was 0.548 and the phosphorylation enrichment [12] was 1.23. For the same sequence, the phosphorylation enrichment [13] was 1.42, the SH2 binding enrichment [14] was 1.92 and the SH2 binding enrichment [15] was 1.46. The SH2 binding enrichment [16] was 11.
Sequence QMEKIYTQQIQ [CCNB1IP1_Y125] has a phosphorylation enrichment [1] of 0.663, a phosphorylation enrichment [2] of 0.628 and a phosphorylation enrichment [3] of 0.651. It also gave a phosphorylation enrichment [4] of 1.12, a phosphorylation enrichment [5] of 1.03 and a phosphorylation enrichment [6] of 0.673. It also gave a phosphorylation enrichment [7] of 0.5, a phosphorylation enrichment [8] of 0.747 and a phosphorylation enrichment [9] of 1.06. For the same sequence, the phosphorylation enrichment [10] was 1.19, the phosphorylation enrichment [11] was 0.466 and the phosphorylation enrichment [12] was 1.55. For the same sequence, the phosphorylation enrichment [13] was 1.07, the SH2 binding enrichment [14] was 0.478 and the SH2 binding enrichment [15] was 0.398. The SH2 binding enrichment [16] was 0.807.
